Measurements taken from patent US20160193316A1 (priority 1994, published 2016).

How the values were obtained:
[1] = target: HLA-A*1101 (Homo sapiens, UniProt P04439, A114D/D185E/E176A/F33Y/L180Q/S129P/T187R); assay: HLA class I peptide binding assay; settings: Table XVII
[2] = target: T1, DRB1*0405 (DR4w15) (Homo sapiens, UniProt P01903+P01911, A100R/A169T/D86S/F76Y/I96L/K127E/L162R/M171V/N62H/P40V/Q125Y/R42H/S133A/S149N/S66Y/V115G/V209L/W38E); assay: HLA class II peptide binding assay; settings: for DR4w15 binding data: Table XIXb
T1 construct: endogenous in cells; host or cells: KT3

[3] = target: T2, DRB1*0301 (DR3) (Homo sapiens, UniProt P01903+P01911, A100K/A102G/A103R/A169T/F55Y/I96L/K41T/L162R/M171V/P40S/Q125H/Q178H/Q39Y/R42S/S66N/T106N/T262R/W38E/Y61H); assay: HLA class II peptide binding assay (pH 4.5); settings: for DR3 binding information: unit not given
T2 construct: endogenous in cells; host or cells: MAT

[4] = target: T3, DRB1*0401 (DR4w4) (Homo sapiens, UniProt P01903+P01911, A100K/A169T/F76Y/I96L/K127E/L162R/M171V/N62H/P40V/Q125Y/R42H/S133A/S149N/S66Y/V115G/V209L/W38E); assay: HLA class II peptide binding assay; settings: for DR4w4 binding data: Table XIXb
T3 construct: endogenous in cells; host or cells: Preiss

[5] = target: T4, DRB4*0101 (DRw53) (Homo sapiens, UniProt P01903+P13762, G164S); assay: HLA class II peptide binding assay (pH 5.0); settings: for DRw53 binding data: Table XIXb
T4 construct: expressed in transfected cells; host or cells: L257.6 (fibroblasts)

[6] = target: T5, DRB1*0802 (DR8w2) (Homo sapiens, UniProt P01903+P01911, A100R/A103L/A169T/F76Y/H45Y/I96F/K41T/L162R/M171V/P40S/Q125H/Q178H/Q39Y/Q99D/R218S/R42G/S66Y/V115G/W38E); assay: biochemical; format: binding
T5 construct: endogenous in cells; host or cells: OLL

[7] = target: T6, DRB1*1201 (DR5w12) (Homo sapiens, UniProt P01903+P01911, A100R/A169T/D57E/D86V/F55L/H45Y/K41T/L162R/M171V/P40S/Q125H/Q178H/Q39Y/Q99D/R42G/S66L/T262R/V114A/V67L/W38E/Y59H/Y61H/Y89S); assay: HLA class II peptide binding assay; settings: for DR5w12 binding data: Table XIXb
T6 construct: endogenous in cells; host or cells: Herluf

[8] = target: T7, DRB5*0101 (DR2w2β2) (Homo sapiens, UniProt P01903+Q30154); format: binding
T7 construct: expressed in transfected cells; host or cells: L416.3 (fibroblasts) or GM3107

[9] = target: T8, DRB1*0101 (DR1) (Homo sapiens, UniProt P01903+P01911, A100R/D57E/F55L/F60I/F76Y/I96L/L162R/M171V/P40L/Q125E/R42F/V115G/Y59C); assay: HLA class II peptide binding assay; settings: for DR1 binding data: Table XIXb, Malaria Super Motif Peptides With Binding Data
T8 construct: endogenous in cells; host or cells: LG2

[10] = target: T9, DRB1*1101 (DR5w11) (Homo sapiens, UniProt P01903+P01911, A100R/A169T/A87E/I96F/K41T/L162R/M171V/P40S/Q125H/Q178H/Q39Y/Q99D/R42S/S66Y/T262R/V115G/W38E); assay: biochemical; format: binding
T9 construct: endogenous in cells; host or cells: Sweig

[11] = target: T10, DRB1*0701 (DR7) (Homo sapiens, UniProt P01903+P01911, A100R/A102G/A103Q/D57E/D86V/E43K/F76Y/K127E/L162R/M171V/P40G/Q125H/Q99D/R33Q/R42Y/R54Q/S133A/S66F/T210M/V115G/Y107V/Y59L/Y89S); assay: biochemical; format: binding
T10 construct: endogenous in cells; host or cells: Pitout

[12] = target: T11, HLA-A*0301 (Homo sapiens, UniProt P04439); assay: HLA class I peptide binding assay; settings: for A*301 (binding data): Malaria A03 supermotif peptides; for A*0301 (binding information): Table XVI, Malaria A3 motif peptides
T11 construct: endogenous in cells; host or cells: GM3107

[13] = malaria A11 motif peptides, binding value unit not given
[14] = Malaria A11 motif peptides, binding value for HLA-A*1101, unit not given
[15] = DR3a motif peptides, unit not given, exemplary 15-mer containing the core sequence

T8 sequence (P01903 26-254 partner, other chains not shown): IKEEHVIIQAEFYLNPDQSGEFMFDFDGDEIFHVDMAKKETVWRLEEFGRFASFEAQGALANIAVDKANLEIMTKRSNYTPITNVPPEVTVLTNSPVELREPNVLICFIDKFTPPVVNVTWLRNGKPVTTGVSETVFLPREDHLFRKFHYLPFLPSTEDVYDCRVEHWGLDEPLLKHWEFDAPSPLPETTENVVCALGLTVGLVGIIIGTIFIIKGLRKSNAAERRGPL
T3 sequence (P01903 26-254 partner, other chains not shown): as above
T9 sequence (P01903 26-254, other chains not shown): as the sequence (P01903 26-254 partner, other chains not shown) above

## SVTCGKOTFt (SVTCGKGTR)
[1]; [13]
  A*1101 binding information: 0.0009

## ESITINVEGR
[1]; [14]
  A*1101 binding information: 0.0002

## IVDELSEDI
[2]; [15]
  DR4w15 binding information: 0.0017
[3]; DR3a motif peptides, exemplary 15-mer containing the core sequence
  DR3 binding information: -0.0041
[4]; [15]
  DR4w4 binding information: 0.0027
[5]; [15]
  DRw53 binding information: 0.0290
[6]
  DR8w2 binding information: -0.0003
[7]; [15]
  DR5w12 binding information: 0.0001
[8]
  DR2w2β2 binding information: -0.0005
[9]; [15]
  DR1 binding information: 0.0001
[10]
  DR5w11 binding information: -0.0002
[11]
  DR7 binding information: -0.0003

## EDMCYFMK
[1]; [14]
  A*1101 binding information: 0.0003

## HORNNENRSY
[1]; [13]
  A*1101 binding information: 0.0002

## NSEDRETPPH
[1]; [13]
  A*1101 binding information: 0.0002

## YLLMDCSGS
[2]
  DR4w15 binding data: -0.0014
[4]
  DR4w4 binding data: 0.0150
[5]
  DRw53 binding data: -0.0010
[6]
  DR8w2 binding data: 0.0007
[7]
  DR5w12 binding data: 0.0001
[8]
  DR2w2β2 binding data: 0.0096
[9]
  DR1 binding data: 0.0015
[10]
  DR5w11 binding data: -0.0004
[11]
  DR7 binding data: 0.0046

## FLKENKLNK
[3]; Malaria DR3b motif peptides
  DR3 binding information: 0.0950
[1]; [14]
  A*1101 binding information: 0.0005
[12]; binding value, no unit given
  A*301 (binding data): 0.0260
[12]; HLA-A*0301 binding value, unit not given
  A*0301 (binding information): 0.0260

## TCGKGIRSRK
[1]; [13]
  A*1101 binding information: 0.0002

## CCKGIRSRKR
[1]; [13]
  A*1101 binding information: 0.0002

## SLYDEHRKY
[1]; [13]
  A*1101 binding information: 0.0045

## WSPCSVTCGK
[1]; [13]
  A*1101 binding information: 0.0002

## LAMKLIQQL
[2]
  DR4w15 binding data: 0.0013
[4]
  DR4w4 binding data: 0.0023
[5]
  DRw53 binding data: 0.0350
[6]
  DR8w2 binding data: 0.0400
[7]
  DR5w12 binding data: 0.1300
[8]
  DR2w2β2 binding data: -0.0006
[9]
  DR1 binding data: 0.0015
[10]
  DR5w11 binding data: 0.0002
[11]
  DR7 binding data: 0.0770

## IQNHTLETV
[2]
  DR4w15 binding data: -0.0014
[3]; Table XIXb, DR3
  DR3 binding data: -0.0041
[4]
  DR4w4 binding data: -0.0007
[6]
  DR8w2 binding data: -0.0003
[7]
  DR5w12 binding data: 0.0001
[8]
  DR2w2β2 binding data: -0.0005
[9]
  DR1 binding data: 0.0001
[10]
  DR5w11 binding data: -0.0002
[11]
  DR7 binding data: -0.0003

## YGRLEIPAI
[2]
  DR4w15 binding data: 0.0170
[4]
  DR4w4 binding data: -0.0007
[5]
  DRw53 binding data: -0.0005
[6]
  DR8w2 binding data: 0.0021
[7]
  DR5w12 binding data: 0.0002
[8]
  DR2w2β2 binding data: -0.0005
[9]
  DR1 binding data: 0.0004
[10]
  DR5w11 binding data: -0.0002
[11]
  DR7 binding data: -0.0003

## GLVLYNIEK
[1]; Malaria A11 motif peptides, HLA-A*1101 binding value, unit not given
  A*1101 binding information: 0.0055

## FDEILGEEDK
[1]; [13]
  A*1101 binding information: 0.0002

## LSTNLPYGR
[4]
  DR4w4 binding data: 0.0120
[1]; [13]
  A*1101 binding information: 0.0100
[12]; binding value to HLA-A*0301, unit not given
  A*0301 (binding information): 0.0004
[12]; Table IX
  A*301 (binding data): 0.0004
[9]
  DR1 binding data: 0.0012
[11]
  DR7 binding data: 0.0005

## KSLYDEHIIK
[1]; [14]
  A*1101 binding information: 0.0340
